Assays:
dansylated calmodulin [1] = target: T1, dansylated calmodulin (rat, UniProt P0DP30 1-149, dansyl group covalently bound to CaM (position not given)); test: absence of Ca2+
dansylated calmodulin [2] = target: T1, dansylated calmodulin; test: 3.9 uM Ca2+ (poor 1:1 fit, Bmax constrained)

- Kd (dansylated calmodulin [1]): 4.8 nM
- Kd (dansylated calmodulin [2]): 21.4 nM
B1: Kv7.2 CaM binding domain (residues 310–548), Q2AB WT (domain or fragment)
chain: not shown

— paper PMC3904923 (2014)
